# According to patent US20220009987A9, “HUMAN RESISTIN COMPOSITIONS AND METHODS OF TREATING TLR4-MEDIATED DISEASE AND INFECTION” (THE REGENTS OF THE UNIVERSITY OF CALIFORNIA, priority 2017, published 2022):
# B1: hRetn: human resistin protein (hRetn) having an amino acid sequence of SEQ ID NO: 1; recombinant, E. coli-derived or 293T cell-derived (protein, listed as Homo sapiens)
# chain: MKALCLLLLPVLGLLVSSKTLCSMEEAINERIQEVAGSLIFRAISSIGLECQSVTSRGDLATCPRGFAVTGCTCGSACGSWDVRAETTCHCQCAGMDWTGARCCRVQP
# Columns and labels:
# human CAP1 = human CAP1 (Homo sapiens, UniProt Q01518); experiment: Pull-down assay with His-tagged human CAP1; type: binding; details: nickel-NTA agarose beads, anti-hRetn blot
# Experimental: Pull-down Assay. 1 μg/ml protein His-tagged MBP, human TLR4 and human CAP1 were added to nickel-nitrilotriacetic acid-agarose beads (Invitrogen) in binding buffer (50 mM NaH2PO4, 500 mM NaCl, 10 mM Imidazole, pH 8.0) and mixed for 1 hour at 4° C., followed by washing and 1 h incubation at 4° C. with hRetn (E. coli-derived, Peprotech or 293T cell-derived, LifeSpan Biosciences) in binding buffer. Beads were washed in wash buffer (50 mM NaH2PO4, 500 mM NaCl, 20 mM Imidazole, pH 8.0), and complex protein eluted with elution buffer (50 mM NaH2PO4, 500 mM NaCl, 250 mM Imidazole, pH 6.0). His-MBP, His-TLR4 and His-CAP1 were detected by anti-His antibody (Abcam), and hRetn was detected by anti-hRetn antibody (donated by Mitchell Lazar) by Western Blot. For the N-peptide binding experiment, 1 μg/ml His-tagged human TLR4 with 500 ng/ml N-peptide or 10% TFE control was added to the beads in binding buffer and mixed for 30 min at 4° C., followed by co-immunoprecipitation using 1 μg/ml Flag-hRetn (LifeSpan Biosciences), anti-His or anti-Flag (Sigma).
# CD14+CD11b+ monocytes = experiment: Competitive resistin/LPS binding assay on human PBMCs (flow cytometry); type: cell-based; details: for LPS binding to CD14+CD11b+ monocytes: pre-incubation before LPS-biotin, on ice
# Experimental: Human PBMCs. Human buffy coat was purchased from Zen-bio. Buffy coat was overlaid on top of Histopaque-1077 and spun at 700g at 25° C. with no brake and PBMCs were recovered from the interphase. PBMCs were plated in 96-well plates and stimulated with mammalian-derived human resistin (1 μg/mL, LifeSpan Biosciences) or hRetn N-peptide (1 μg/mL). After 24 hours, ultrapure LPS (100 ng/mL, Invivogen) was added and supernatants recovered for ELISA at 24 hours. Where indicated, cells were incubated for 4 hours with STAT3 (5, 15-DPP, 50 μM) or TBK1 (BX-795, 1 μM) inhibitors prior to hRetn treatment. For the hRetn competitive binding assay, 1×10^6 cells were incubated with recombinant hRetn (0.5 μg), washed in PBS then incubated with 0.5 μg LPS-biotin (incubations were 30 minutes on ice). Cells were washed in FACS buffer, treated with Fc block, and stained with BV605-conjugated streptavidin and α-human primary antibodies: CD14 (clone M5E2), CD11 b (clone M1/70) and MD2/TLR4 (clone HTA125) purchased from Affymetrix.
# Sequence of human CAP1 (Q01518 whole entry): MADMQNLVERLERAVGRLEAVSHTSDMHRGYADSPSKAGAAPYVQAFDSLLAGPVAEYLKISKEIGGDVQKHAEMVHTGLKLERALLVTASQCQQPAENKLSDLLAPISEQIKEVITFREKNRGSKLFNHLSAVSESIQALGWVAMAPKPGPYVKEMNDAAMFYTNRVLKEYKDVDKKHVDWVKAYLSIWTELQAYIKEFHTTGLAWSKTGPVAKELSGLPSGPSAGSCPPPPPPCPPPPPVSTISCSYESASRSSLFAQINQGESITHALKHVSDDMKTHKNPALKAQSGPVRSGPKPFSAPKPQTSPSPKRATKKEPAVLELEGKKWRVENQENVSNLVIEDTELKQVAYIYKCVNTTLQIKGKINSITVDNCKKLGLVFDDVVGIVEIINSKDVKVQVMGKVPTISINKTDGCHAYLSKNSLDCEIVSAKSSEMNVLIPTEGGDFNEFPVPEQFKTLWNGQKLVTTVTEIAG
molecule,measurement,setting,value
B1,hRetn in pull-down elution with his-CAP1 (Western blot),human CAP1,not his-CAP1
same,cell population binding hRetn in human PBMC,CD14+CD11b+ monocytes; flow cytometry,CD11b+CD14+ monocytes were the dominant population that bound hRetn
same,LPS-promoted surface MD2/TLR4 complex formation,"CD14+CD11b+ monocytes; human PBMC, flow cytometry",abrogated
same,LPS binding to CD14+CD11b+ monocytes,CD14+CD11b+ monocytes,significantly abrogated
same,LPS binding to CD14+CD11b+ monocytes,CD14+CD11b+ monocytes; listed as full-length hRetn,inhibited LPS binding
